Blank lines part the entries; values can stand above or below the molecule they belong to.
Key:
UVR8^R146A (Arabidopsis) = UVR8^R146A (Arabidopsis) (UniProt Q9FN03); test: SEC
UVR8^R286A (Arabidopsis) = UVR8^R286A (Arabidopsis) (UniProt Q9FN03); test: SEC
[1] = molecular target: T1, UVR8 (UV … LOCUS 8), recombinant Arabidopsis, full-length wild type (Arabidopsis), Q9FN03; test: SEC; conditions: remark: other sources report otherwise
T1 chain: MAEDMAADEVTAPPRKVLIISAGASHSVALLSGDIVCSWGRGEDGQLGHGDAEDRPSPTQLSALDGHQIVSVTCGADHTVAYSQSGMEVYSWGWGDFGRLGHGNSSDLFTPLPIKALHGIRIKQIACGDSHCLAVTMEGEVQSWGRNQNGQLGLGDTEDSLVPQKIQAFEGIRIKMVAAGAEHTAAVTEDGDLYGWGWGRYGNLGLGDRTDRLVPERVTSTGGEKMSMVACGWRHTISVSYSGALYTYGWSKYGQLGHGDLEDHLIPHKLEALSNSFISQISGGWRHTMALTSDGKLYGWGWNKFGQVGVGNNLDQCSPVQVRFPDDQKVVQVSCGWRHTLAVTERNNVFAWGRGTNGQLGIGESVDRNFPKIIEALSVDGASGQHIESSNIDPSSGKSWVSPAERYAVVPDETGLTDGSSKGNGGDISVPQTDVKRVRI

[2] = molecular target: T1, UVR8 (UV … LOCUS 8), recombinant …; test: SEC-MALS; conditions: remark: other sources report otherwise
[3] = molecular target: T1, UVR8 (UV … LOCUS 8), recombinant …; test: SDS-PAGE without sample boiling; conditions: remark: other sources report otherwise
[4] = molecular target: T1, UVR8 (UV … LOCUS 8), recombinant …; test: SAXS; conditions: remark: other sources report otherwise
[5] = molecular target: T2, UVR8^W285A (Arabidopsis), Q9FN03; test: SAXS; conditions: remark: other sources report otherwise
T2 chain: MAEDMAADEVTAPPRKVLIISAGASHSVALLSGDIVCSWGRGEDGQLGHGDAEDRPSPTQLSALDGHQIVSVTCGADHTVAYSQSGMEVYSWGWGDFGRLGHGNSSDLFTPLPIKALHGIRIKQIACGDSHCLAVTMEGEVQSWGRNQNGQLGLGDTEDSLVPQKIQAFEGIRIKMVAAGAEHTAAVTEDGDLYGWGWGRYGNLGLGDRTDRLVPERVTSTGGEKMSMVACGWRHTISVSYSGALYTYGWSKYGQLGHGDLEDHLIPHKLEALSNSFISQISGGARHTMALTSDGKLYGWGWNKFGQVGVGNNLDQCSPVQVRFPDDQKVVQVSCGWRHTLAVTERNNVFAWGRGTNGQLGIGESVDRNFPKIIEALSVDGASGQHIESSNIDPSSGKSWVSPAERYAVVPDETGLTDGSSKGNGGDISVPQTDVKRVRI

[6] = molecular target: T3, UVR8^W233F (Arabidopsis), Q9FN03; test: SEC; conditions: remark: other sources report otherwise
T3 chain: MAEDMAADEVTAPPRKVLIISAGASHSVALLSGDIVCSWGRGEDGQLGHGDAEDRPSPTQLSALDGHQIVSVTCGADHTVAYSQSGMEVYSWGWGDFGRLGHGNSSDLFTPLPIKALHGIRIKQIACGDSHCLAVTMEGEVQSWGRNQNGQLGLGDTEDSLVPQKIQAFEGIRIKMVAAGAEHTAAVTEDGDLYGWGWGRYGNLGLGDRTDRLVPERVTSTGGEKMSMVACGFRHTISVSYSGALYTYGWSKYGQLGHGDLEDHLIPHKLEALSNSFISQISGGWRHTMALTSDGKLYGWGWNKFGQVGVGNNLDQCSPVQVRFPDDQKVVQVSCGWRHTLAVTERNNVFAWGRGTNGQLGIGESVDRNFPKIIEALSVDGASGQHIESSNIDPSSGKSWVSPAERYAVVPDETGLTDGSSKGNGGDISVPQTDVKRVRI

[7] = molecular target: T3, UVR8^W233F (Arabidopsis), Q9FN03; test: SEC; conditions: remark: other sources report otherwise
SEC = molecular target: the molecule itself; test: SEC
SAXS = molecular target: the molecule itself; test: SAXS

Molecule: UVR8^R146A (from UniProt Q9FN03 1-440) (natural protein)
stoichiometry N (UVR8^R146A (Arabidopsis)): 2

B1: UVR8 (UV … LOCUS 8), recombinant Arabidopsis, full-length wild type, Q9FN03 1-440 (natural protein)
chain: MAEDMAADEVTAPPRKVLIISAGASHSVALLSGDIVCSWGRGEDGQLGHGDAEDRPSPTQLSALDGHQIVSVTCGADHTVAYSQSGMEVYSWGWGDFGRLGHGNSSDLFTPLPIKALHGIRIKQIACGDSHCLAVTMEGEVQSWGRNQNGQLGLGDTEDSLVPQKIQAFEGIRIKMVAAGAEHTAAVTEDGDLYGWGWGRYGNLGLGDRTDRLVPERVTSTGGEKMSMVACGWRHTISVSYSGALYTYGWSKYGQLGHGDLEDHLIPHKLEALSNSFISQISGGWRHTMALTSDGKLYGWGWNKFGQVGVGNNLDQCSPVQVRFPDDQKVVQVSCGWRHTLAVTERNNVFAWGRGTNGQLGIGESVDRNFPKIIEALSVDGASGQHIESSNIDPSSGKSWVSPAERYAVVPDETGLTDGSSKGNGGDISVPQTDVKRVRI
stoichiometry N [1]: 2
stoichiometry N [2]: 2
stoichiometry N [3]: 2
stoichiometry N [4]: 2

B4: UVR8^W285F (natural protein, Arabidopsis, UniProt Q9FN03 1-440, looked up)
chain: MAEDMAADEVTAPPRKVLIISAGASHSVALLSGDIVCSWGRGEDGQLGHGDAEDRPSPTQLSALDGHQIVSVTCGADHTVAYSQSGMEVYSWGWGDFGRLGHGNSSDLFTPLPIKALHGIRIKQIACGDSHCLAVTMEGEVQSWGRNQNGQLGLGDTEDSLVPQKIQAFEGIRIKMVAAGAEHTAAVTEDGDLYGWGWGRYGNLGLGDRTDRLVPERVTSTGGEKMSMVACGWRHTISVSYSGALYTYGWSKYGQLGHGDLEDHLIPHKLEALSNSFISQISGGFRHTMALTSDGKLYGWGWNKFGQVGVGNNLDQCSPVQVRFPDDQKVVQVSCGWRHTLAVTERNNVFAWGRGTNGQLGIGESVDRNFPKIIEALSVDGASGQHIESSNIDPSSGKSWVSPAERYAVVPDETGLTDGSSKGNGGDISVPQTDVKRVRI
stoichiometry N (SEC): 2

B5: trypsin-treated UVR8 (crystallographic construct) (domain or fragment, Arabidopsis)
chain: MAEDMAADEVTAPPRKVLIISAGASHSVALLSGDIVCSWGRGEDGQLGHGDAEDRPSPTQLSALDGHQIVSVTCGADHTVAYSQSGMEVYSWGWGDFGRLGHGNSSDLFTPLPIKALHGIRIKQIACGDSHCLAVTMEGEVQSWGRNQNGQLGLGDTEDSLVPQKIQAFEGIRIKMVAAGAEHTAAVTEDGDLYGWGWGRYGNLGLGDRTDRLVPERVTSTGGEKMSMVACGWRHTISVSYSGALYTYGWSKYGQLGHGDLEDHLIPHKLEALSNSFISQISGGWRHTMALTSDGKLYGWGWNKFGQVGVGNNLDQCSPVQVRFPDDQKVVQVSCGWRHTLAVTERNNVFAWGRGTNGQLGIGESVDRNFPKIIEALSVDGASGQHIESSNIDPSSGKSWVSPAE
stoichiometry N (SAXS): 2

Continued, values first:

stoichiometry N (UVR8^R286A (Arabidopsis)): 2
Molecule: UVR8^R286A (from UniProt Q9FN03 1-440) (natural protein)

stoichiometry N [5]: 2
B2: UVR8^W285A, Q9FN03 1-440 (natural protein)
chain: MAEDMAADEVTAPPRKVLIISAGASHSVALLSGDIVCSWGRGEDGQLGHGDAEDRPSPTQLSALDGHQIVSVTCGADHTVAYSQSGMEVYSWGWGDFGRLGHGNSSDLFTPLPIKALHGIRIKQIACGDSHCLAVTMEGEVQSWGRNQNGQLGLGDTEDSLVPQKIQAFEGIRIKMVAAGAEHTAAVTEDGDLYGWGWGRYGNLGLGDRTDRLVPERVTSTGGEKMSMVACGWRHTISVSYSGALYTYGWSKYGQLGHGDLEDHLIPHKLEALSNSFISQISGGARHTMALTSDGKLYGWGWNKFGQVGVGNNLDQCSPVQVRFPDDQKVVQVSCGWRHTLAVTERNNVFAWGRGTNGQLGIGESVDRNFPKIIEALSVDGASGQHIESSNIDPSSGKSWVSPAERYAVVPDETGLTDGSSKGNGGDISVPQTDVKRVRI

stoichiometry N [6]: 2
stoichiometry N [7]: 2
B3: UVR8^W233F, Q9FN03 1-440 (natural protein)
chain: MAEDMAADEVTAPPRKVLIISAGASHSVALLSGDIVCSWGRGEDGQLGHGDAEDRPSPTQLSALDGHQIVSVTCGADHTVAYSQSGMEVYSWGWGDFGRLGHGNSSDLFTPLPIKALHGIRIKQIACGDSHCLAVTMEGEVQSWGRNQNGQLGLGDTEDSLVPQKIQAFEGIRIKMVAAGAEHTAAVTEDGDLYGWGWGRYGNLGLGDRTDRLVPERVTSTGGEKMSMVACGFRHTISVSYSGALYTYGWSKYGQLGHGDLEDHLIPHKLEALSNSFISQISGGWRHTMALTSDGKLYGWGWNKFGQVGVGNNLDQCSPVQVRFPDDQKVVQVSCGWRHTLAVTERNNVFAWGRGTNGQLGIGESVDRNFPKIIEALSVDGASGQHIESSNIDPSSGKSWVSPAERYAVVPDETGLTDGSSKGNGGDISVPQTDVKRVRI
